The values that follow come from patent US20240025995A1.

In assay [1] the target is human FcγRIIb on CHOK1 cells overexpressing FcγRIIb (human) (UniProt P31994). The experiment in a line: flow cytometry on CHOK1 cells overexpressing FcγRIIb; detection with anti-human kappa antibody. (In general: A flow cytometer gives signals particle by particle.)
Assay [2] deals with human FcγRIIa (R131) on CHOK1 cells overexpressing FcγRIIa (R131) (human) (UniProt P12318). Put plainly: flow cytometry on CHOK1 cells overexpressing FcγRIIa (R131); detection with anti-human kappa antibody.
Chain of UniProt P12318 (P12318 34-317 H167R): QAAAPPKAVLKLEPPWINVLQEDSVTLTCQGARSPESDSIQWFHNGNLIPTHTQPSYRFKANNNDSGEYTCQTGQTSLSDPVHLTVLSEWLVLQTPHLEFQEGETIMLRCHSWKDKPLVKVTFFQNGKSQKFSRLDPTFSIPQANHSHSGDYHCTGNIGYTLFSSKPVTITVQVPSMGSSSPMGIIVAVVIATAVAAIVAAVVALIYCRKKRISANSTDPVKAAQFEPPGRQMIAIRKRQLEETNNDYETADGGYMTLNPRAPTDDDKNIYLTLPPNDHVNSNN

Chain of UniProt P31994 (P31994 43-310): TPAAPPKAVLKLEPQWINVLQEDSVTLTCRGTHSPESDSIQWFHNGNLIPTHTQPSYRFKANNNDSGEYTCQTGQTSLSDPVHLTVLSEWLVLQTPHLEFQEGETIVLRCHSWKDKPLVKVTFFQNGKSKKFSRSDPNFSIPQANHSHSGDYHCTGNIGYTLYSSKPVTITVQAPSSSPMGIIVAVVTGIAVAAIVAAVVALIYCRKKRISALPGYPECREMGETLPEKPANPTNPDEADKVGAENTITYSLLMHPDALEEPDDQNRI

In the case of “anti-LAG3 SELF (from UniProt P01857 1-330) (antibody)”, in assay [1], the Log EC50 was -0.0779.

For “anti-RSV AAA (from UniProt P01857 1-330) (antibody)”, the Log EC50 in assay [1] came out at 4.42; in assay [2] it was 3.9.
